Source: patent US20140309404A1 (Eli Lilly, published 2014)

Key:
human BMP-6 [1] = biological target: T1, human BMP-6 (human, UniProt P22004 382-513, limits assumed); assay: SPR (BIAcore), BMP-6 immobilised on CM4 chip, antibody injected, 37 C
T1 construct: Bought from R&D Systems
T1 sequence: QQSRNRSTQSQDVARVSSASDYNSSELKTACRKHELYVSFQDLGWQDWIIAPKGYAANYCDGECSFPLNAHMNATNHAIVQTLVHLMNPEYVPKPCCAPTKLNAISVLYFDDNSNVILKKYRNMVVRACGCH

human BMP-6 [2] = biological target: T1, human BMP-6; assay: cell-based or functional assay
human BMP-7 = biological target: T2, human BMP-7 (human, UniProt P18075 293-431); assay: SPR (BIAcore), BMP immobilised on CM4 chip, antibody injected, 37 C
T2 sequence (looked up): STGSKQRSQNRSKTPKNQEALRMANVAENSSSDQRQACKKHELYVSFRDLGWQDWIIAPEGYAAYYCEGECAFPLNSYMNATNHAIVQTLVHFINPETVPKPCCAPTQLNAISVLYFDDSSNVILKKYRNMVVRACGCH

human BMP-5 = biological target: T3, human BMP-5 (human, UniProt P22003 317-454, limits assumed); assay: as above
T3 sequence (looked up): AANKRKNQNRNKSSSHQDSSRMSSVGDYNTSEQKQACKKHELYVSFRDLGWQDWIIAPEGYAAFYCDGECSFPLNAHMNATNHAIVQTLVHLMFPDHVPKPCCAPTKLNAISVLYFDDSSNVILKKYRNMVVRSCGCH

human BMP-6 [3] = biological target: T1, human BMP-6; assay: SPR (BIAcore), ratio of KD against MAB507, 37 C
human BMP-6 [4] = biological target: T1, human BMP-6; assay: cell-based or functional assay; remark: listed apart in the source
rat BMP-6 = biological target: T4, rat BMP-6 (rat, UniProt Q04906 368-506, limits assumed); assay: SPR (BIAcore), Fab on rat BMP-6, 37 C
T4 sequence (looked up): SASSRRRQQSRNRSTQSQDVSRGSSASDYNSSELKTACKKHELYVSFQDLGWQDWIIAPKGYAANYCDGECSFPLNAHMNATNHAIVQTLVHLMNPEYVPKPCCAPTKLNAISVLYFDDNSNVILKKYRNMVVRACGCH

human BMP-6 [5] = biological target: T1, human BMP-6; assay: SPR (BIAcore), Fab on human BMP-6, 37 C
human BMP-6 [6] = biological target: T1, human BMP-6; assay: SPR (BIAcore), Fab on human BMP-6, 37 C; remark: listed apart in the source
Cynomolgus monkey BMP-6 = biological target: T5, Cynomolgus monkey BMP-6 (cynomolgus monkey); assay: SPR (BIAcore), Fab on cynomolgus monkey BMP-6, 37 C
T5 construct: also called Cyno Monkey BMP-6

B1: Antibody I (antibody, human IgG4 S228P, kappa, F234A L235A, V domains shown)
VH: QVQLVQSGAEVKKPGSSVKVSCKASGYTFTSYAMHWVRQAPGQGLEWMGYINPYNDGTKYNENFKGRVTITADESTSTAYMELSSLRSEDTAVYYCARRPFGNAMDIWGQGTLVTVSS
VL: DIQMTQSPSSLSASVGDRVTITCRSSENIYRNLAWYQQKPGKAPKLLIYAATNLADGVPSRFSGSGSGTDFTLTISSLQPEDFATYYCQGIWGTPLTFGGGTKVEIKR
notes: Engineered antibody with human frameworks and constant regions
Human BMP-6 [1]
  Kd: 0.02 nM
  koff: 4.05e-05 s⁻¹
  kon: 1.73e+06 M⁻¹ s⁻¹
Human BMP-6 [2]
  Geometric Mean IC50 (nM), BMP-6 induced Hep_Luc Assay (hepcidin promoter luciferase, HepProm_Luc cells): 0.99 nM
Human BMP-7
  binding result: no binding (tested: up to 1000 nM antibody)
Human BMP-5
  binding result: no binding (tested: up to 1000 nM antibody)
Human BMP-6 [3]
  fold higher affinity than MAB507: 50 fold
Human BMP-6 [4]
  fold potency against MAB507 in inhibition of BMP-6-induced hepcidin promoter luciferase activity: ~22 fold

B2: Antibody II (antibody, human IgG4 S228P, kappa, F234A L235A, V domains shown)
VH: QVQLVQSGAEVKKPGSSVKVSCKASGYTFTSYAMHWVRQAPGQGLEWMGYINPYNRGTKYNENFKGRVTITADESTSTAYMELSSLRSEDTAVYYCARRPFGNAMDIWGQGTLVTVSS
VL: DIQMTQSPSSLSASVGDRVTITCRSSENIYRNLAWYQQKPGKAPKLLIYAATNLADGVPSRFSGSGSGTDFTLTISSLQPEDFATYYCQGIWGTPLTFGGGTKVEIKR
Human BMP-6 [2]
  Geometric Mean IC50 (nM), BMP-6 induced Hep_Luc Assay (hepcidin promoter luciferase, HepProm_Luc cells): 0.94 nM
Human BMP-6 [4]
  fold potency against MAB507 in inhibition of BMP-6-induced hepcidin promoter luciferase activity: ~22 fold

B3: Fab of Antibody I (Fab, V domains shown)
VH: QVQLVQSGAEVKKPGSSVKVSCKASGYTFTSYAMHWVRQAPGQGLEWMGYINPYNDGTKYNENFKGRVTITADESTSTAYMELSSLRSEDTAVYYCARRPFGNAMDIWGQGTLVTVSS
VL: DIQMTQSPSSLSASVGDRVTITCRSSENIYRNLAWYQQKPGKAPKLLIYAATNLADGVPSRFSGSGSGTDFTLTISSLQPEDFATYYCQGIWGTPLTFGGGTKVEIK
notes: These are the variable regions of Antibody I; also called Antibody I Fab
Rat BMP-6
  Kd: 0.088 nM
  koff: 0.0003 s⁻¹
  kon: 4.1e+06 M⁻¹ s⁻¹
Human BMP-6 [5]
  Kd: 0.09 nM
  koff: 0.00023 s⁻¹
  kon: 2.5e+06 M⁻¹ s⁻¹
Human BMP-6 [6]
  Kd: 0.0845 nM
  koff: 0.00028 s⁻¹
  kon: 3.7e+06 M⁻¹ s⁻¹
Cynomolgus monkey BMP-6
  Kd: 0.0796 nM
  koff: 0.00028 s⁻¹
  kon: 4.1e+06 M⁻¹ s⁻¹

B4: Fab of Antibody II (Fab, V domains shown)
VH: QVQLVQSGAEVKKPGSSVKVSCKASGYTFTSYAMHWVRQAPGQGLEWMGYINPYNRGTKYNENFKGRVTITADESTSTAYMELSSLRSEDTAVYYCARRPFGNAMDIWGQGTLVTVSS
VL: DIQMTQSPSSLSASVGDRVTITCRSSENIYRNLAWYQQKPGKAPKLLIYAATNLADGVPSRFSGSGSGTDFTLTISSLQPEDFATYYCQGIWGTPLTFGGGTKVEIK
notes: These are the variable regions of Antibody II; also called Antibody II Fab
Human BMP-6 [5]
  Kd: 0.08 nM
  koff: 0.00025 s⁻¹
  kon: 3e+06 M⁻¹ s⁻¹
